According to IntAct's records for PubMed 16014621:

B1: Septum site-determining protein minD homolog, chloroplastic (Arabidopsis thaliana (Mouse-ear cress)), Q9MBA2 (parent)
chain: MASLRLFSTNHQSLLLPSSLSQKTLISSPRFVNNPSRRSPIRSVLQFNRKPELAGETPRIVVITSGKGGVGKTTTTANVGLSLARYGFSVVAIDADLGLRNLDLLLGLENRVNYTCVEVINGDCRLDQALVRDKRWSNFELLCISKPRSKLPMGFGGKALEWLVDALKTRPEGSPDFIIIDCPAGIDAGFITAITPANEAVLVTTPDITALRDADRVTGLLECDGIRDIKMIVNRVRTDMIKGEDMMSVLDVQEMLGLSLLGVIPEDSEVIRSTNRGFPLVLNKPPTLAGLAFEQAAWRLVEQDSMKAVMVEEEPKKRGFFSFFGG
partner: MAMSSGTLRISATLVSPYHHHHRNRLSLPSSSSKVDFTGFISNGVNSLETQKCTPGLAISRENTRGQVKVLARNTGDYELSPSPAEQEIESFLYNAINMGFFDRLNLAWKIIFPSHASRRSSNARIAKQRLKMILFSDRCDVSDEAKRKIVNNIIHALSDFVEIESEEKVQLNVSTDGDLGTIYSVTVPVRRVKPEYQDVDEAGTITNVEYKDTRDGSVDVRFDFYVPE

Variants of: B1
Settings: with mine1_arath MINE1, Q9C4Z7

| effect of a mutation on the interaction | Variant |
| --- | --- |
| decreasing interaction | K72A |
